Measurements published in US20230203155A1 (ALMAC DISCOVERY, published 2023).
Blank lines part the entries; values can stand above or below the binder they belong to.

What was measured:
[1] = target: T1, human ROR1-hFc fusion protein (extracellular domain) (human); assay: SPR, human ROR1 ECD-Fc on chip;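 note: SPR binding kinetics of VNAR and VNAR-Fc molecules run at a range of concentrations over immobilised target, rate and affinity constants fitted with QDat software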
T1 construct: Whole entry 'human ROR1-Fc (CHO)'; also called hROR1; huROR1-Fc
Method: Binding kinetics were determined using a Pioneer Surface Plasmon Resonance (SPR) instrument (SensiQ/Pall ForteBio). […] VNARs and VNAR-Fc molecules were tested at various concentrations and the Ka (M⁻¹s⁻¹), Kd (s⁻¹) and KD (nM) values were determined using QDat software (SensiQ/Pall ForteBio).
Thermal stability assays used Applied Biosystems StepOne Real Time PCR system with the Protein Thermal Shift™ dye kit (Thermo). The assay mix was set up so that the protein was at a final concentration of 20 OA in 20 μL. 5 μL of Thermal Shift™ buffer was added alongside 2.5 uL 8× Thermal Shift™ Dye. Assays were run using the StepOne software and data analysed using Protein Thermal Shift™ software. All data are from first derivative analysis.

human serum albumin [2] = target: T2, human serum albumin (human, UniProt P02768 25-609); assay: SPR, albumin on chip, pH 5.5;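 note: albumins amine-coupled onto carboxyl SPR chips, with each analyte also run over a hen egg lysozyme surface as negative control, Kd derived from binding kinetics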
T2 construct: also called HSA
Method: (§1) Binding kinetics were determined using SPR. The serum albumins or negative control protein were immobilised to COOH₂ chips by amine coupling using optimised buffer conditions as follows: —Human serum albumin (HSA) and mouse serum albumin (MSA) were immobilised in sodium acetate pH5 buffer. Rat serum albumin (RSA) and cynomolgous serum albumin (CSA) in sodium acetate pH 4.5 buffer and the negative control hen egg lysozyme (HEL) protein was immobilised in sodium acetate pH 5.5 buffer.
(§2) For each analyte test experiment, binding to the chosen serum albumin protein was assayed alongside the negative control protein (HEL).

rat serum albumin [3] = target: T3, rat serum albumin (rat, UniProt P02770 25-608); assay: SPR, albumin on chip, pH 5.5;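 note: albumins amine-coupled onto carboxyl SPR chips, with each analyte also run over a hen egg lysozyme surface as negative control, Kd derived from binding kinetics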
T3 construct: also called RSA
Method: as §1, §2

mouse serum albumin [4] = target: T4, mouse serum albumin (mouse, UniProt P07724 25-608); assay: SPR, albumin on chip, pH 5.5;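 note: albumins amine-coupled onto carboxyl SPR chips, with each analyte also run over a hen egg lysozyme surface as negative control, Kd derived from binding kinetics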
T4 construct: also called MSA
Method: as §1, §2

[5] = target: T5, cynomolgous serum albumin (cynomolgous, UniProt A2V9Z4 25-608); assay: SPR, albumin on chip, pH 5.5;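 note: albumins amine-coupled onto carboxyl SPR chips, with each analyte also run over a hen egg lysozyme surface as negative control, Kd derived from binding kinetics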
T5 construct: also called CSA; Cyano
Method: as §1, §2

human serum albumin [6] = target: T2, human serum albumin; assay: SPR, albumin on chip, pH 7.4;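 note: Human, mouse, rat and cynomolgus serum albumins amine-coupled to carboxyl sensor chips, with a hen egg lysozyme surface measured in parallel as negative control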
Method: as §1, §2

rat serum albumin [7] = target: T3, rat serum albumin; assay: SPR, albumin on chip, pH 7.4;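 note: Human, mouse, rat and cynomolgus serum albumins amine-coupled to carboxyl sensor chips, with a hen egg lysozyme surface measured in parallel as negative control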
Method: as §1, §2

mouse serum albumin [8] = target: T4, mouse serum albumin; assay: SPR, albumin on chip, pH 7.4;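 note: Human, mouse, rat and cynomolgus serum albumins amine-coupled to carboxyl sensor chips, with a hen egg lysozyme surface measured in parallel as negative control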
Method: as §1, §2

[9] = target: T5, cynomolgous serum albumin; assay: SPR, albumin on chip, pH 7.4;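 note: Human, mouse, rat and cynomolgus serum albumins amine-coupled to carboxyl sensor chips, with a hen egg lysozyme surface measured in parallel as negative control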
Method: as §1, §2

[10] = target: T6, recombinant human ROR1 (hROR1), construct not stated (human, UniProt Q01973 30-403, limits assumed); assay: SPR, hROR1 on chip
[11] = target: T6, recombinant human ROR1 (hROR1), …; assay: SPR, hROR1 on chip with competitor P3A1 dimer pre-captured
Method: (§3) Competition of binding studies were completed using SPR. […] FC2 was used as the reference channel. […] Binding kinetics were determined using QDat software.

[12] = target: T6, recombinant human ROR1 (hROR1), …; assay: SPR, hROR1 on chip; remark: listed apart in the source
Method: as §3

[13] = target: T6, recombinant human ROR1 (hROR1), …; assay: SPR, hROR1 on chip with competitor B1 pre-captured
Method: as §3

T3 sequence (P02770 25-608 limits assumed): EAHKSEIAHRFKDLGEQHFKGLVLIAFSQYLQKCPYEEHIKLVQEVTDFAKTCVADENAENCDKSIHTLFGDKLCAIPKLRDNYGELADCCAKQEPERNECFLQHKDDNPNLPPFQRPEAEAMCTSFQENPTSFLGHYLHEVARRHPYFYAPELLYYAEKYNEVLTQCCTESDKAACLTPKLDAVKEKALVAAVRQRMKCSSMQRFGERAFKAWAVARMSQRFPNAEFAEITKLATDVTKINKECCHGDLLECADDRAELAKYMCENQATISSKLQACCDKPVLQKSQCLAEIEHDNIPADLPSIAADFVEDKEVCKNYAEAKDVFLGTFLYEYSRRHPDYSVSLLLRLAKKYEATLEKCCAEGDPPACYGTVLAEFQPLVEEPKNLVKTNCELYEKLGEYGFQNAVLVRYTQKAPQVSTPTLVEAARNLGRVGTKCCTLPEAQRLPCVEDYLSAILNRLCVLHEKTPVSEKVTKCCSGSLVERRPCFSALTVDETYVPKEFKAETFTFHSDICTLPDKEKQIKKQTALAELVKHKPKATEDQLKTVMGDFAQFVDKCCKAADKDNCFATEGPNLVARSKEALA
T6 sequence (Q01973 30-403 limits assumed): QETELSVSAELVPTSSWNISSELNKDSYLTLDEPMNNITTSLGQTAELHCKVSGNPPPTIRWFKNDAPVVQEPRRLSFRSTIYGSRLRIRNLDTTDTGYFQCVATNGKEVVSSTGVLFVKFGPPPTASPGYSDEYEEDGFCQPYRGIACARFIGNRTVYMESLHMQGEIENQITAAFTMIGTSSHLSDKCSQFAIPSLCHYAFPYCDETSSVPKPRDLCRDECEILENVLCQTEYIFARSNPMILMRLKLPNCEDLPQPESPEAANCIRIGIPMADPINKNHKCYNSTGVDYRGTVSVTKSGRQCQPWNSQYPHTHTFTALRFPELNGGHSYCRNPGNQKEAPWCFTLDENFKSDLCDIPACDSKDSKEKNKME
T5 sequence (A2V9Z4 25-608 limits assumed): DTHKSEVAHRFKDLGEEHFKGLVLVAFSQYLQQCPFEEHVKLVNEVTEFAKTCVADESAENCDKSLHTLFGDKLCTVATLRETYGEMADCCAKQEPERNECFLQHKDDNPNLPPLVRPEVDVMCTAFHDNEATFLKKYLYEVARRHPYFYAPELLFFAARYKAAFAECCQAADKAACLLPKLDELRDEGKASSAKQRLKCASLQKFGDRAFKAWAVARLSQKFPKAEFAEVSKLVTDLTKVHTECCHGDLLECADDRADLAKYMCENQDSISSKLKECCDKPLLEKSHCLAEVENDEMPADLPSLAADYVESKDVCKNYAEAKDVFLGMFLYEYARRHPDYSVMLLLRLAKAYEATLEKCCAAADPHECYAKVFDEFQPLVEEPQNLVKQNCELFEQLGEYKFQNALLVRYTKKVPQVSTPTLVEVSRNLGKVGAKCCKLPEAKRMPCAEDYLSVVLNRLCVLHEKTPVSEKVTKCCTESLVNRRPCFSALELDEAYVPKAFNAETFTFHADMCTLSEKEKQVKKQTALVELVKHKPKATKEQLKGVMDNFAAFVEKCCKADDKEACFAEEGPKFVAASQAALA
T4 sequence (P07724 25-608 limits assumed): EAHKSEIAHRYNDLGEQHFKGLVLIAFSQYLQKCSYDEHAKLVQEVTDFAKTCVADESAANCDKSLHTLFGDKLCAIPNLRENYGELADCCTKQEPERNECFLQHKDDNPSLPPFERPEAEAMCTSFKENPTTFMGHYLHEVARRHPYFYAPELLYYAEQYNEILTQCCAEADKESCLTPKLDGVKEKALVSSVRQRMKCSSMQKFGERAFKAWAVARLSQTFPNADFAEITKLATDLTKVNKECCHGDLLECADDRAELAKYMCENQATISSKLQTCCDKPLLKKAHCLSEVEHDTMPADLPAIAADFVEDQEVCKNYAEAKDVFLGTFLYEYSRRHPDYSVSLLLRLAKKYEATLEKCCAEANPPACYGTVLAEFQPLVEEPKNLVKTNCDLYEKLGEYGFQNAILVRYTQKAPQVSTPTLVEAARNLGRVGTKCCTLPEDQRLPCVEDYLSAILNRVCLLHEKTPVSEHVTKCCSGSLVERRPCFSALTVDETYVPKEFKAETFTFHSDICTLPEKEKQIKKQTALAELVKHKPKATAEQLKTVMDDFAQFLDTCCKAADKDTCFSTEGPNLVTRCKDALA
T1 sequence (chain, as listed by the source limits assumed): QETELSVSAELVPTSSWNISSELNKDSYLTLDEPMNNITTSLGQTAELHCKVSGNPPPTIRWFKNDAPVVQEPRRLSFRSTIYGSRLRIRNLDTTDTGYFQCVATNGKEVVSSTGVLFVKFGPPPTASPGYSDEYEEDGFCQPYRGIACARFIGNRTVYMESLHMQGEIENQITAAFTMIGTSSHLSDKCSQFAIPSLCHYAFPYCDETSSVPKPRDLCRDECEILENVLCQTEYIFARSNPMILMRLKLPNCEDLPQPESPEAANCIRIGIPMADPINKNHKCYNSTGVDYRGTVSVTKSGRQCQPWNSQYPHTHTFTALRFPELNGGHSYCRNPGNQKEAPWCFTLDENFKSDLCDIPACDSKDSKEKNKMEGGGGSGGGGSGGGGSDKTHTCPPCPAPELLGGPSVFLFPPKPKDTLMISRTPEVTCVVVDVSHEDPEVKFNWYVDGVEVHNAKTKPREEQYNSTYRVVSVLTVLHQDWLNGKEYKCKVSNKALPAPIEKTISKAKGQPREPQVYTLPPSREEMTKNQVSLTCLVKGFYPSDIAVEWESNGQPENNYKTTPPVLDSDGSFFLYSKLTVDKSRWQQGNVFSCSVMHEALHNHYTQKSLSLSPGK

B1: D3 humanised EL V2 with His6myc tag (VNAR)
VNAR: ASVNQSPSSLSASVGDRVTITCVLTDTSYGLYSTSWFRKNPGTTDWERMSIGGRYVESVNKRAKSFTLTISSLQPEDFATYYCKAQSGMAISTGSGHGYNWYDGAGTKVEIKQ
notes: VNAR; also called D3 EL V2
Kd [1]: 18.9 nM
koff [1]: ~0.0163 s⁻¹
kon [1]: 1.85e+06 M⁻¹ s⁻¹

B2: D3 humanised ADV2 with His6myc tag (VNAR)
VNAR: TRVDQSPSSLSASVGDRVTITCVLTDTSYGLYSTSWFRKNPGTTDWERMSIGGRYSESVNKGAKSFTLTISSLQPEDSATYYCKAQSGMAISTGSGHGYNWYDGAGTKVEIKQ
notes: VNAR; also called D3 AD V2
Kd [1]: 51.6 nM
koff [1]: 0.00236 s⁻¹
kon [1]: 45800 M⁻¹ s⁻¹

B3: D3 humanised EL V4 with His6myc tag (VNAR)
VNAR: ASVNQSPSSLSASVGDRVTITCVLTDTSYGLYSTSWYQQKPGTTDWERMSIGGRYVESVNKRAKSFTLTISSLQPEDFATYYCKAQSGMAISTGSGHGYNWYDGAGTKVEIKQ
notes: VNAR; also called D3 EL V4
Kd [1]: 58.5 nM
koff [1]: ~0.0545 s⁻¹
kon [1]: 1.38e+06 M⁻¹ s⁻¹

B4: D3 ADV1 dimer (VNAR)
chain: ASVNQSPSSLSASVGDRVTITCVLTDTSYGLYSTSWFRKNPGTTDWERMSIGGRYSESVNKGAKSFTLTISSLQPEDSATYYCKAQSGMAISTGSGHGYNWYDGAGTKVEIKGGGGSGGGGSGGGGSGGGGSGGGGSASVNQSPSSLSASVGDRVTITCVLTDTSYGLYSTSWFRKNPGTTDWERMSIGGRYSESVNKGAKSFTLTISSLQPEDSATYYCKAQSGMAISTGSGHGYNWYDGAGTKVEIKQASGAHHHHHHGAEFEQKLISEEDL
notes: Listing names it 'D3V1 dimer'; also called D3V1 dimer
Kd [1]: 8.92 nM
koff [1]: 0.00567 s⁻¹
kon [1]: 636000 M⁻¹ s⁻¹

B5: D3 ADV2 dimer (VNAR)
chain: TRVDQSPSSLSASVGDRVTITCVLTDTSYGLYSTSWFRKNPGTTDWERMSIGGRYSESVNKGAKSFTLTISSLQPEDSATYYCKAQSGMAISTGSGHGYNWYDGAGTKVEIKGGGGSGGGGSGGGGSGGGGSGGGGSTRVDQSPSSLSASVGDRVTITCVLTDTSYGLYSTSWFRKNPGTTDWERMSIGGRYSESVNKGAKSFTLTISSLQPEDSATYYCKAQSGMAISTGSGHGYNWYDGAGTKVEIKQASGAHHHHHHGAEFEQKLISEEDL
notes: Listing names it 'D3V2 dimer'; also called D3V2 dimer
Kd [1]: 26.2 nM
koff [1]: 0.016 s⁻¹
kon [1]: 609000 M⁻¹ s⁻¹

B6: P3A1 V1 dimer (VNAR)
chain: TRVDQSPSSLSASVGDRVTITCVLTDTSYGLYSTSWFRKNPGTTDWERMSIGGRYVESVNKGAKSFTLTISSLQPEDFATYYCKAREARHPWLRQWYDGAGTKVEIKGGGGSGGGGSGGGGSGGGGSGGGGSTRVDQSPSSLSASVGDRVTITCVLTDTSYGLYSTSWFRKNPGTTDWERMSIGGRYVESVNKGAKSFTLTISSLQPEDFATYYCKAREARHPWLRQWYDGAGTKVEIKQASGAHHHHHHGAEFEQKLISEEDL
Kd [1]: 0.18 nM
koff [1]: 0.000846 s⁻¹
kon [1]: 4.78e+06 M⁻¹ s⁻¹

B14: B1 G2 (humanised/grafted B1) with His6myc tag (VNAR)
VNAR: TRVDQSPSSLSASVGDRVTITCVLTGANYGLASTYWYRKNPGSSNQERISISGRYSESVNKRTMSFTLTISSLQPEDSATYYCRAYPWGAGAPWLVQWYDGAGTKVEIKQ
notes: VNAR
Kd [1]: 45.9 nM
koff [1]: 0.0079 s⁻¹
kon [1]: 185000 M⁻¹ s⁻¹

B15: B1 humanised V5 with His6myc tag (VNAR)
VNAR: ASVDQSPSSLSASVGDRVTITCVVTGANYGLAATYWYRKNPGSSNQERISISGRYSESVNKRTMSFTLTISSLQPEDSATYYCKAYPWGAGAPWLVQWYDGAGTKVEIKQ
notes: VNAR; also called B1V5
Kd [1]: 0.74 nM
koff [1]: 3.85e-05 s⁻¹
kon [1]: 52000 M⁻¹ s⁻¹

B16: B1 G1 (humanised/grafted B1) with His6myc tag (VNAR)
VNAR: TRVDQSPSSLSASVGDRVTITCVLTGANYGLASTYWYRKNPGSSNKEQISISGRYSESVNKGTKSFTLTISSLQPEDSATYYCRAYPWGAGAPWLVQWYDGAGTKVEIKQ
notes: VNAR
Kd [1]: 82.8 nM
koff [1]: 0.0162 s⁻¹
kon [1]: 220000 M⁻¹ s⁻¹

B17: B1 humanised V7 with His6myc tag (VNAR)
VNAR: ASVDQSPSSASASVGDRLTITCVVTGANYGLAATYWYRKNPGSSNQERISISGRYSESVNKRTMSFTLTISSLQPEDSATYYCKAYPWGAGAPWLVQWYDGAGTKLEVKQ
notes: VNAR; also called B1V7
Kd [1]: 0.77 nM
koff [1]: 5.54e-05 s⁻¹
kon [1]: 77400 M⁻¹ s⁻¹

Results, then the binder that gave them:

Kd [1]: 0.77 nM
koff [1]: 0.00119 s⁻¹
kon [1]: 1.88e+06 M⁻¹ s⁻¹
B7: P3A1 G2 dimer (VNAR)
chain: TRVDQSPSSLSASVGDRVTITCVLTDTSYGLYSTYWYRKNPGTTDWERMSIGGRYSESVNKGAKSFTLTISSLQPEDSATYYCRAREARHPWLRQWYDGAGTKVEIKGGGGSGGGGSGGGGSGGGGSGGGGSTRVDQSPSSLSASVGDRVTITCVLTDTSYGLYSTYWYRKNPGTTDWERMSIGGRYSESVNKGAKSFTLTISSLQPEDSATYYCRAREARHPWLRQWYDGAGTKVEIKQASGAHHHHHHGAEFEQKLISEEDL
notes: humanised VNAR dimer

Kd (human serum albumin [2]): 0.91 nM
Kd (rat serum albumin [3]): 4.39 nM
Kd (mouse serum albumin [4]): 4.8 nM
Kd [5]: 1.11 nM
Kd (human serum albumin [6]): 0.636 nM
Kd (rat serum albumin [7]): 2.97 nM
Kd (mouse serum albumin [8]): 1.9 nM
Kd [9]: 3.36 nM
B8: BA11 (humanised HSA-binding VNAR) (VNAR)
VNAR: TRVDQSPSSLSASVGDRVTITCVLTDTSYPLYSTYWYRKNPGSSNKEQISISGRYSESVNKGTKSFTLTISSLQPEDSATYYCRAMSTNIWTGDGAGTKVEIK
notes: VNAR

Kd (mouse serum albumin [4]): 21.2 nM
Kd (human serum albumin [6]): 1.12 nM
Kd (rat serum albumin [7]): 10.8 nM
Kd (mouse serum albumin [8]): 8.77 nM
Kd [9]: 7.97 nM
B9: BA11-aminoxy (VNAR)
VNAR: TRVDQSPSSLSASVGDRVTITCVLTDTSYPLYSTYWYRKNPGSSNKEQISISGRYSESVNKGTKSFTLTISSLQPEDSATYYCRAMSTNIWTGDGAGTKVEIK
modifications: C-terminal aminoxy (intein cleavage with dioxyamine)

Kd (human serum albumin [2]): 1.96 nM
Kd (rat serum albumin [3]): 3.21 nM
Kd (mouse serum albumin [4]): 3.77 nM
Kd (human serum albumin [6]): 0.756 nM
Kd (rat serum albumin [7]): 3.37 nM
Kd [9]: 2.1 nM
B10: BA11 C-terminal cysteine derivative (VNAR)
VNAR: TRVDQSPSSLSASVGDRVTITCVLTDTSYPLYSTYWYRKNPGSSNKEQISISGRYSESVNKGTKSFTLTISSLQPEDSATYYCRAMSTNIWTGDGAGTKVEIK
modifications: additional C-terminal cysteine (intein cleavage with cysteine)
notes: also called BA11-cys

Kd (human serum albumin [2]): 3.16 nM
Kd (rat serum albumin [3]): 7.24 nM
Kd (mouse serum albumin [4]): 13.6 nM
Kd [5]: 8.21 nM
Kd (human serum albumin [6]): 1.1 nM
Kd (rat serum albumin [7]): 4.78 nM
Kd (mouse serum albumin [8]): 5.06 nM
Kd [9]: 3.68 nM
B11: BA11-C terminal cysteine-maleimide-peg-fluorescein (VNAR)
VNAR: TRVDQSPSSLSASVGDRVTITCVLTDTSYPLYSTYWYRKNPGSSNKEQISISGRYSESVNKGTKSFTLTISSLQPEDSATYYCRAMSTNIWTGDGAGTKVEIK
modifications: C-terminal cysteine conjugated to maleimide-peg-fluorescein
notes: also called BA11-cys-mal-Fl

Kd (human serum albumin [2]): 1.3 nM
Kd (rat serum albumin [3]): 5.93 nM
Kd (mouse serum albumin [4]): 7.44 nM
Kd [5]: 5.54 nM
Kd (human serum albumin [6]): 0.677 nM
Kd (rat serum albumin [7]): 5.72 nM
Kd (mouse serum albumin [8]): 4.24 nM
Kd [9]: 1.75 nM
B12: BA11-oxime-fluorescein (VNAR)
VNAR: TRVDQSPSSLSASVGDRVTITCVLTDTSYPLYSTYWYRKNPGSSNKEQISISGRYSESVNKGTKSFTLTISSLQPEDSATYYCRAMSTNIWTGDGAGTKVEIK
modifications: C-terminal oxime-linked benzaldehyde-peg-fluorescein

Kd [10]: 0.078 nM
koff [10]: 0.000451 s⁻¹
kon [10]: 5.77e+06 M⁻¹ s⁻¹
Kd [11]: 0.081 nM
koff [11]: 0.000444 s⁻¹
kon [11]: 5.48e+06 M⁻¹ s⁻¹
B13: UC961 based mAb (antibody, human IgG1, kappa, V domains shown)
VH: QVQLQESGPGLVKPSQTLSLTCTVSGYAFTAYNIHWVRQAPGQGLEWMGSFDPYDGGSSYNQKFKDRLTISKDTSKNQVVLTMTNMDPVDTATYYCARGWYYFDYWGHGTLVTVSS
VL: DIVMTQTPLSLPVTPGEPASISCRASKSISKYLAWYQQKPGQAPRLLIYSGSTLQSGIPPRFSGSGTGTDFTLTINNIESEDAAYYFCQQHDESPYTFGEGTKVEIKR
notes: also called UC961-like; mAb based on UC-961

Kd [1]: 0.43 nM
koff [1]: 0.00147 s⁻¹
kon [1]: 4.3e+06 M⁻¹ s⁻¹
B18: P3A1 G1 dimer (VNAR)
chain: TRVDQSPSSLSASVGDRVTITCVLTDTSYGLYSTYWYRKNPGSSNKEQISISGRYSESVNKGTKSFTLTISSLQPEDSATYYCRAREARHPWLRQWYDGAGTKVEIKGGGGSGGGGSGGGGSGGGGSGGGGSTRVDQSPSSLSASVGDRVTITCVLTDTSYGLYSTYWYRKNPGSSNKEQISISGRYSESVNKGTKSFTLTISSLQPEDSATYYCRAREARHPWLRQWYDGAGTKVEIKQASGAHHHHHHGAEFEQKLISEEDL
notes: humanised VNAR dimer

Kd [12]: 0.21 nM
koff [12]: 0.000211 s⁻¹
kon [12]: 979000 M⁻¹ s⁻¹
Kd [10]: 0.233 nM
koff [10]: 0.000342 s⁻¹
kon [10]: 1.47e+06 M⁻¹ s⁻¹
Kd [13]: 0.101 nM
koff [13]: 8.47e-05 s⁻¹
kon [13]: 835000 M⁻¹ s⁻¹
Kd [11]: 0.231 nM
koff [11]: 0.000322 s⁻¹
kon [11]: 1.39e+06 M⁻¹ s⁻¹
B19: ROR1 2A2 mAb (BioLegend) (antibody, V domains shown)
VH: QVQLQQSGAELVRPGASVTLSCKASGYTFSDYEMHWVIQTPVHGLEWIGAIDPETGGTAYNQKFKGKAILTADKSSSTAYMELRSLTSEDSAVYYCTGYYDYDSFTYWGQGTLVTVSA
VL: DIVMTQSQKIMSTTVGDRVSITCKASQNVDAAVAWYQQKPGQSPKLLIYSASNRYTGVPDRFTGSGSGTDFTLTISNMQSEDLADYFCQQYDIYPYTFGGGTKLEIK
